Assays:
[1] = molecular target: CFP-RBX1-CUL1^CTD~NEDD8 (UniProt P62877); test: FRET or BRET
[2] = molecular target: CFP-RBX1-CUL1^CTD (human) (UniProt P62877); test: FRET or BRET
[3] = molecular target: CFP-RBX1^RING (human) (UniProt P62877); test: FRET or BRET
[4] = molecular target: cellular RBX1 (Fig. S7) (human) (UniProt P62877)
cellular RBX1 (Fig. S7) (human), sequence (P62877 whole entry): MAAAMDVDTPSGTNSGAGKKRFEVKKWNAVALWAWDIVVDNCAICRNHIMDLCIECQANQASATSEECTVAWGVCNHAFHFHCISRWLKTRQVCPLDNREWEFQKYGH

GLMN-YFP, sequence (Q92990 whole entry): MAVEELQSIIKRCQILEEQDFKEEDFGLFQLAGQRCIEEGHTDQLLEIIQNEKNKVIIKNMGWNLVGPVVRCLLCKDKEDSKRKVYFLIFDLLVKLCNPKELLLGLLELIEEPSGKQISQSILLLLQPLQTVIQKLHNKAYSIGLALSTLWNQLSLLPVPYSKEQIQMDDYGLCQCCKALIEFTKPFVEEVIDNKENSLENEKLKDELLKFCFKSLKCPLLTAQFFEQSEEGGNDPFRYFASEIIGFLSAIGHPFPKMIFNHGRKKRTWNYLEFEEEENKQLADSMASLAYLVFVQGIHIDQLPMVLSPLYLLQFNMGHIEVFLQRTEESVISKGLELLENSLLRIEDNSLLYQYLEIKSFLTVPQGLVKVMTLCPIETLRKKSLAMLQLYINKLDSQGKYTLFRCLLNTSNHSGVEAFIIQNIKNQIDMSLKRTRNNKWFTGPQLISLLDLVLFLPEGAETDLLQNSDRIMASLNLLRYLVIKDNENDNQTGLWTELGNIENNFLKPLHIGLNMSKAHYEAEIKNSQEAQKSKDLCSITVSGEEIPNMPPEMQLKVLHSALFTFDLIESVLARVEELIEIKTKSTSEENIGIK
CFP-RBX1^RING (human), sequence (P62877 whole entry): as the sequence (P62877 whole entry) above
CFP-RBX1-CUL1^CTD (human), sequence (P62877 whole entry, chain 1 of 2): as the sequence (P62877 whole entry) above
CFP-RBX1-CUL1^CTD (human), sequence (Q13616 411-776, chain 2 of 2, further chain): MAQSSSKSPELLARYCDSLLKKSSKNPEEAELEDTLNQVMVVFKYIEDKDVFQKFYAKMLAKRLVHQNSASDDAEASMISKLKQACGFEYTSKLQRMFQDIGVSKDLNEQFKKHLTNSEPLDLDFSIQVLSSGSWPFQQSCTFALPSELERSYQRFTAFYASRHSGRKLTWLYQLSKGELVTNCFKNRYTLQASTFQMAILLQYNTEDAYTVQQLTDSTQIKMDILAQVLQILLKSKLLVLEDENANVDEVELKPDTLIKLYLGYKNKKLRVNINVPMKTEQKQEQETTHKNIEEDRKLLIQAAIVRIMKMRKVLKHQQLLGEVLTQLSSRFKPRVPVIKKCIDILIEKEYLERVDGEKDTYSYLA
CFP-RBX1-CUL1^CTD~NEDD8, sequence (P62877 whole entry, chain 1 of 3): as the sequence (P62877 whole entry) above
CFP-RBX1-CUL1^CTD~NEDD8, sequence (Q13616 411-776, chain 2 of 3, further chain): as the sequence (Q13616 411-776, chain 2 of 2, further chain) above
CFP-RBX1-CUL1^CTD~NEDD8, sequence (Q15843 1-76, chain 3 of 3, further chain): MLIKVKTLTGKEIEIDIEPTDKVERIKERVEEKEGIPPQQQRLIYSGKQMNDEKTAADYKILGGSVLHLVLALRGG
GLMN in cells (Fig. S7), sequence (Q92990 whole entry): as the sequence (Q92990 whole entry) above

Row | Kd [1] [µM] | Kd [2] [µM] | Kd [3] [µM] | percent of cellular RBX1 bound by GLMN [4] [percent] | Substance
1 | 0.028 | 0.036 | 0.045 | – | GLMN-YFP (from UniProt Q92990 1-594) (natural protein)
2 | – | – | – | 7 | GLMN in cells (Fig. S7) (from UniProt Q92990 1-594) (natural protein)

Reference: article PMC3477590
